Here are results for 3 substances from paper PMC13218722.

Experiment [1] concerns the target LFA-1 (CD11a/CD18) on THP-1 cells and primary human NK cells (human (endogenous in THP-1 and primary NK cells)) (UniProt P20701). Briefly: flow cytometry on cells; THP-1 cells, with or without CD11a siRNA, fixed, incubated with 250 nM GBP130-Fc or 250 nM hIgG control in FACS buffer 2 hr; PE-Texas Red anti-human secondary antibody.
Experiment [2] shares this target.
The target of experiment [3] is LFA-1 αI-Fc fusion protein (human) (UniProt P20701). The experiment in a line: BLI; LFA-1 αI immobilised on AR2G (amine reactive) sensor at 100 ng; PfGBP-130-N as analyte at increasing concentrations; 1× PBS pH 7.4; 25°C; 800 s; 1:1 binding model; Octet K2; n≥3.
LFA-1 αI-Fc fusion protein (human), sequence (P20701 153-335): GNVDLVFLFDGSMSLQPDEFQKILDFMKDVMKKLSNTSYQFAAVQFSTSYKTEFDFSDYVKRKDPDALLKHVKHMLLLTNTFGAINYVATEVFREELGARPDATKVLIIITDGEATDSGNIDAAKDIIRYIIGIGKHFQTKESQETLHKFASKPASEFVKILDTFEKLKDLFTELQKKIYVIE

LFA-1 (CD11a/CD18) on THP-1 cells and primary human NK cells (human (endogenous in THP-1 and primary NK cells)), sequence (P20701 26-1170, chain 1 of 2): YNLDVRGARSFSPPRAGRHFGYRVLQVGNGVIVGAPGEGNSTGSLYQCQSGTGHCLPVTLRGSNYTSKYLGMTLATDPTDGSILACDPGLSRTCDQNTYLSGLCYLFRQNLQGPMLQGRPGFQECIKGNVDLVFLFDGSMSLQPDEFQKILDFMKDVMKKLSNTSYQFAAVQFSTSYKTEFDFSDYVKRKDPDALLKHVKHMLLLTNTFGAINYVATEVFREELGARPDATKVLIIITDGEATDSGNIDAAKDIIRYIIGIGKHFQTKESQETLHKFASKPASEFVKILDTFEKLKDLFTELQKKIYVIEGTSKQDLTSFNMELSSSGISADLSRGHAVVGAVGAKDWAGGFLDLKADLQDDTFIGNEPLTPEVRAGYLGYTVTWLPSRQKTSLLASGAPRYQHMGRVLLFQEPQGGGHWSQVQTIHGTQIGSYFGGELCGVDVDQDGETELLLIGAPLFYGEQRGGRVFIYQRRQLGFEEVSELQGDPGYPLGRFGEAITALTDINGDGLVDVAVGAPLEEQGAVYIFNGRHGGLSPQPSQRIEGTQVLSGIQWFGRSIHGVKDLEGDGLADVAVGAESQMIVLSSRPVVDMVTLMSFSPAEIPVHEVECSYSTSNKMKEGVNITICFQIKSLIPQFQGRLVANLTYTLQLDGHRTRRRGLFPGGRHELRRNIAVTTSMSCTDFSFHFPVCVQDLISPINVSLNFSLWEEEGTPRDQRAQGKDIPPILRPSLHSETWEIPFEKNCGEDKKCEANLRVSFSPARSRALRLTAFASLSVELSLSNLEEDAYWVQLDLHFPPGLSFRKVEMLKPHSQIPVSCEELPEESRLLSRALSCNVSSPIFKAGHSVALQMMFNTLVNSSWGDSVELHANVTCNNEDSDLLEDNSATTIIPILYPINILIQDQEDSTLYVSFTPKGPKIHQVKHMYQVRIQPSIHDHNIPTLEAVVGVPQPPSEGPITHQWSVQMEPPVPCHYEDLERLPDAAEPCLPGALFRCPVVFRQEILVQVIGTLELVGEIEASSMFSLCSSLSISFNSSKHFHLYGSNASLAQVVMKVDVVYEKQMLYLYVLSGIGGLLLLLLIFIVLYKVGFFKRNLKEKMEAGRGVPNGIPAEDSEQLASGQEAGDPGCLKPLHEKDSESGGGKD
LFA-1 (CD11a/CD18) on THP-1 cells and primary human NK cells (human (endogenous in THP-1 and primary NK cells)), sequence (P05107 23-769, chain 2 of 2, further chain): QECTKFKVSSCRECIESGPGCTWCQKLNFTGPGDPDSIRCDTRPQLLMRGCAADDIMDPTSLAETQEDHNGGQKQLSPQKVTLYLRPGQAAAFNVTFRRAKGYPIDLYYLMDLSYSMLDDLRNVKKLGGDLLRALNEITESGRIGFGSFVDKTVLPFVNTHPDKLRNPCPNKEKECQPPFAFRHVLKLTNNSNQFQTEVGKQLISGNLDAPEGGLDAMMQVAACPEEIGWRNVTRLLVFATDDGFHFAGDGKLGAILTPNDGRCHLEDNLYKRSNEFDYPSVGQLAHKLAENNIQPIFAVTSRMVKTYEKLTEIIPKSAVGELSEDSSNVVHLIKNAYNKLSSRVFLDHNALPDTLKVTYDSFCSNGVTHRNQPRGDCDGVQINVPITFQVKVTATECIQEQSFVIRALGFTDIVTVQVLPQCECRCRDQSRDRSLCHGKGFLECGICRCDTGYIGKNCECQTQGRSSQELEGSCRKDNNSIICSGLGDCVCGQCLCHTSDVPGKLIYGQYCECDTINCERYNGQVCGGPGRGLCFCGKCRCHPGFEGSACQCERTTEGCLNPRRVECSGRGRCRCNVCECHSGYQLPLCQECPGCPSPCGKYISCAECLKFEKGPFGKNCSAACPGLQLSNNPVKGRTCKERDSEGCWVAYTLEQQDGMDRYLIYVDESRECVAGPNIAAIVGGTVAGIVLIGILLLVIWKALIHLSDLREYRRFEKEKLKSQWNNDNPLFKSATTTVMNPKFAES
PfGBP-130-N (N-terminal fragment of PfGBP-130, aa 69-270) (domain or fragment), sequence (Q8I6U8 69-270): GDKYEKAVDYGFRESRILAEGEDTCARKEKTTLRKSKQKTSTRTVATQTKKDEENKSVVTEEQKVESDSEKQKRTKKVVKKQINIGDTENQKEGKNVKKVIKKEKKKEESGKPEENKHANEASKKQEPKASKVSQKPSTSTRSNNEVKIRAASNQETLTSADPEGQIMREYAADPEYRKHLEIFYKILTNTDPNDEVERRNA

“PfGBP-130 ECD-Fc (extracellular domain of PfGBP-130 fused to the Fc region of human IgG1) (Fc fusion)”: in experiment [1], the fold increase in binding over hIgG isotype control (THP-1 cells) came out at 3 fold.

Turning to “PfGBP-130 extracellular domain fused to the transmembrane domain of transferrin receptor (TfR-TM), on CHO K1 cells”, in experiment [2], the CD25 expression on primary human NK cells co-cultured 24 hr with CHO-PfGBP-ECD (2:1, Poly I:C/Lipofectamine 2000) compared to mock CHO cells, flow cytometry; reduced by anti-CD11a (HI111) was 40% and the CD69 expression on primary human NK cells co-cultured 24 hr with CHO-PfGBP-ECD (2:1, Poly I:C/Lipofectamine 2000) compared to mock CHO cells, flow cytometry; reduced by anti-CD11a (HI111) is 50%.

In the case of “PfGBP-130-N (N-terminal fragment of PfGBP-130, aa 69-270) (domain or fragment)”, in experiment [3], the Kd (usually a measure of binding affinity in units of concentration) stood at 17 nM. In other words, the double-digit nanomolar range.
